Measured values published in US20260151494A1 (ARO BIOTHERAPEUTICS, published 2026).
Substitutions are numbered along the chain they refer to.

B1: CD71-binding FN3 domain of SEQ ID NO: 229 (designed binder)
chain: MSLPAPKNLVVSRVTEDSARLSWTAPDAAFDSFSIMYAEQKVNGEAIVLTVPGSERSYDLTGLKPGTEYLVLIWGVKGGGRSLPLSAIFTT
B2: CD71-binding FN3 domain of SEQ ID NO: 225 (designed binder)
chain: MSLPAPKNLVVSRVTEDSARLSWTAPDAAFDSFEIGYFENLYLGEAIVLTVPGSERSYDLTGLKPGTEYWVQIGGVKGGNWSAPLSAIFTT
B3: CD71-binding FN3 domain of SEQ ID NO: 233 (designed binder)
chain: B2 chain with E34F, F38L, N40P, L41Q, Y42P, L43P, V48H, T50S
B4: CD71-binding FN3 domain of SEQ ID NO: 230 (designed binder)
chain: B2 chain with V10I, F33L
B5: CD71-binding FN3 domain of SEQ ID NO: 223 (designed binder)
chain: B2 chain with G36A, N40R, L41T, Y42W, L43F, Q72A, N80L, A83L, A87V
B6: CD71-binding FN3 domain of SEQ ID NO: 228 (designed binder)
chain: B2 chain with F38W, L41A, L43K, W70V, Q72F, N80V, A83K, A87V
B7: CD71-binding FN3 domain of SEQ ID NO: 220 (designed binder)
chain: B2 chain with G36A, F38W, N40Q, L41S, L43T
B8: CD71-binding FN3 domain of SEQ ID NO: 224 (designed binder)
chain: B2 chain with F38W, L41A, L43K, W70V, Q72F, N80G, A83G
B9: CD71-binding FN3 domain of SEQ ID NO: 232 (designed binder)
chain: MSLPAPKNLVVSRVTEDSARLSWTAPDAAFDSFEISYWEHTFNGEAIILFVPGSERSYDLTGLKPGTEYVVFIGGVKGGVWSVPLSAIFTT
B10: CD71-binding FN3 domain of SEQ ID NO: 226 (designed binder)
chain: B2 chain with V11I, Q72A, N80L, A83L
B11: CD71-binding FN3 domain of SEQ ID NO: 227 (designed binder)
chain: MSLPAPKNLVVSRVTEDSARLSWTAPDAAFDSFEIAYAELSTGEAIVLTVPGSERSYDLTGLKPGTEYYVHIGGVKGGSWSIPLSAIFTT
B12: CD71-binding FN3 domain of SEQ ID NO: 222 (designed binder)
chain: MSLPAPKNLVVSRVTEDSARLSWTAPDAAFDSFFIGYLEPQPPGEAITLYVPGSERSYDLTGLKPGTEYNVTIQGVKGGFPSGPLIASFTT
B13: CD71-binding FN3 domain of SEQ ID NO: 231 (designed binder)
chain: B12 chain with T48H, Y50F, G83E, S88N, F89S
B14: CD71-binding FN3 domain of SEQ ID NO: 221 (designed binder)
chain: B12 chain with Q41R, T48H, V71I, G83I
B15: CD71-binding FN3 domain of SEQ ID NO: 219 (designed binder)
chain: MSLPAPKNLVVSRVTEDSARLSWTAPDAAFDSFAIMYGERGNPGEAIVLTVPGSERSYDLTGLKPGTEYAVWIYGVKGGNYSYPLSAIFTT
notes: the tag is not included in the chain
B16: CD71-binding FN3 domain of SEQ ID NO: 234 (designed binder)
chain: B12 chain with T48A, G83E, I86V, S88H
B17: CD71-binding FN3 domain of SEQ ID NO: 333 (designed binder)
chain: B12 chain with K7E, T48A, G83L, I86V, S88T
B18: CD71-binding FN3 domain of SEQ ID NO: 343 (designed binder)
chain: B12 chain with T48A, Y50W, G83E, I86V, S88T
B19: CD71-binding FN3 domain of SEQ ID NO: 341 (designed binder)
chain: B12 chain with T48E, G83L, I86V, S88I
B20: CD71-binding FN3 domain of SEQ ID NO: 972 (designed binder)
chain: B12 chain with T48A, V76A, G83E, I86V, A87V, S88H
B21: CD71-binding FN3 domain of SEQ ID NO: 974 (designed binder)
chain: B12 chain with T48A, G83L, I86V, S88T
B22: CD71-binding FN3 domain of SEQ ID NO: 331 (designed binder)
chain: B12 chain with T48H, G78V, G83E, S88N
B23: CD71-binding FN3 domain of SEQ ID NO: 335 (designed binder)
chain: B12 chain with T48D, G83L, I86V, S88T
B24: CD71-binding FN3 domain of SEQ ID NO: 270 (designed binder)
chain: B12 chain with T48H, G83E, S88N, F89S
B25: CD71-binding FN3 domain of SEQ ID NO: 973 (designed binder)
chain: B12 chain with T48H, V71G, G78V, G83E, S88N
B26: CD71-binding FN3 domain of SEQ ID NO: 264 (designed binder)
chain: B12 chain with T48A, G83E, I86V, A87V, S88H
B27: CD71-binding FN3 domain of SEQ ID NO: 290 (designed binder)
chain: B12 chain with T48H, G83E, I86V, S88T
B28: CD71-binding FN3 domain of SEQ ID NO: 281 (designed binder)
chain: B12 chain with T48A, G83E, S88N
B29: CD71-binding FN3 domain of SEQ ID NO: 974 conjugated to KRAS2 siRNA (designed binder)
chain: B12 chain with T48A, G83L, I86V, S88T
modifications: conjugated to KRAS2 tool siRNA; site and linker not stated
B30: CD71-binding FN3 domain of SEQ ID NO: 341 conjugated to KRAS2 siRNA (designed binder)
chain: B12 chain with T48E, G83L, I86V, S88I
modifications: conjugated to KRAS2 tool siRNA; site and linker not stated
B31: CD71-binding FN3 domain of SEQ ID NO: 343 conjugated to KRAS2 siRNA (designed binder)
chain: B12 chain with T48A, Y50W, G83E, I86V, S88T
modifications: conjugated to KRAS2 tool siRNA; site and linker not stated
B32: CD71-binding FN3 domain of SEQ ID NO: 335 conjugated to KRAS2 siRNA (designed binder)
chain: B12 chain with T48D, G83L, I86V, S88T
modifications: conjugated to KRAS2 tool siRNA; site and linker not stated
B33: CD71-binding FN3 domain of SEQ ID NO: 472 (designed binder)
chain: MLPAPKNLVVSRVTEDSARLSWTAPDAAFDSFFIGYLEPQPPGEAIELYVPGSERSYDLTGLKPGTEYNVTIQGVKGGFPSLPLVATFTT
notes: Tencon-based FN3 domain
B34: CD71-binding FN3 domain of SEQ ID NO: 400 (designed binder)
chain: B33 chain with E47H, Y49F, L82G, V85H
notes: Tencon-based FN3 domain
B35: CD71-binding FN3 domain of SEQ ID NO: 373 (designed binder)
chain: B33 chain with E47S, Y49F, L82D, T87S
notes: Tencon-based FN3 domain
B36: CD71-binding FN3 domain of SEQ ID NO: 540 (designed binder)
chain: MLPAPKNLVVSRVTEDSARLSWTAPDAAFDSFYIAYAEPRPDGEAIILVVPGSERSYDLTGLKPGTEYSVLIHGVKGGLLSSPLDAGFTT
notes: Tencon-based FN3 domain

Target: T1, human CD71 extracellular domain (human, UniProt P02786 89-760)
T1 construct: also called hCD71; human CD71-ECD
T1 sequence (P02786 89-760): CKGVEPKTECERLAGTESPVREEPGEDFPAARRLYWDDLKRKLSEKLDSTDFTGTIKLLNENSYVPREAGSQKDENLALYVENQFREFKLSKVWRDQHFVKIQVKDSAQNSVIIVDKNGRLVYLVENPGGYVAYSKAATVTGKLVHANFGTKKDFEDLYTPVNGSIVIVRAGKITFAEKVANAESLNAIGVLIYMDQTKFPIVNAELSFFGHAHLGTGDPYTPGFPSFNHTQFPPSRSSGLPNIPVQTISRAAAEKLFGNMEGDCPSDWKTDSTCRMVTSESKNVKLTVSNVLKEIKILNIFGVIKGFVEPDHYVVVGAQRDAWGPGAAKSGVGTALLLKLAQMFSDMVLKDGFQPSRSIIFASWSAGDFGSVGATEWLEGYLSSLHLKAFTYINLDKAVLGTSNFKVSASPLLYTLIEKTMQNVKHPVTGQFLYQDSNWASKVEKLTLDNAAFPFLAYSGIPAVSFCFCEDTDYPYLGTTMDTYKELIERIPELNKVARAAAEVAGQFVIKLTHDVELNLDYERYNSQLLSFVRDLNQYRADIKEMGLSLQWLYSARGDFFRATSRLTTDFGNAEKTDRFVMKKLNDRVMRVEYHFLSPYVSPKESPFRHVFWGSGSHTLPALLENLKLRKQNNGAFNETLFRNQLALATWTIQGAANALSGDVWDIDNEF
Experiment: primary ELISA, ratio of signal to HSA control

| hCD71:HSA | Binder |
| --- | --- |
| 90 | B1 |
| 191 | B2 |
| 202 | B3 |
| 151 | B4 |
| 26 | B5 |
| 133 | B6 |
| 388 | B7 |
| 74 | B8 |
| 195 | B9 |
| 20 | B10 |
| 30 | B11 |
| 215 | B12 |
| 56 | B13 |
| 176 | B14 |
| 66 | B15 |

Target: T2, apical domain of cynomolgus CD71 (cynomolgus, UniProt A0A2K5X958 189-383)
T2 construct: domain: apical domain; also called Cyno apical domain
T2 sequence (A0A2K5X958 entry or part of it): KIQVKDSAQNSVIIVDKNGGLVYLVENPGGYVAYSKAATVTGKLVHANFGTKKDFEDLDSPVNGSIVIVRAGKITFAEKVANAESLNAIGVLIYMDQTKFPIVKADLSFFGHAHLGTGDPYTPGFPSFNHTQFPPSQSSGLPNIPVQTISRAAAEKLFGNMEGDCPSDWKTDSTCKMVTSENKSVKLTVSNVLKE
Experiment: primary ELISA, ratio of signal to HSA control

| Cyno apical domain:HSA | Binder |
| --- | --- |
| 119 | B1 |
| 331 | B2 |
| 359 | B3 |
| 282 | B4 |
| 47 | B5 |
| 242 | B6 |
| 751 | B7 |
| 115 | B8 |
| 295 | B9 |
| 28 | B10 |
| 49 | B11 |
| 223 | B12 |
| 63 | B13 |
| 186 | B14 |
| 101 | B15 |

Target: T3, human CD71 on cells (SKBR3; SW620-rLuc-KRAS) (human, UniProt P02786 1-760)
T3 sequence (P02786 whole entry): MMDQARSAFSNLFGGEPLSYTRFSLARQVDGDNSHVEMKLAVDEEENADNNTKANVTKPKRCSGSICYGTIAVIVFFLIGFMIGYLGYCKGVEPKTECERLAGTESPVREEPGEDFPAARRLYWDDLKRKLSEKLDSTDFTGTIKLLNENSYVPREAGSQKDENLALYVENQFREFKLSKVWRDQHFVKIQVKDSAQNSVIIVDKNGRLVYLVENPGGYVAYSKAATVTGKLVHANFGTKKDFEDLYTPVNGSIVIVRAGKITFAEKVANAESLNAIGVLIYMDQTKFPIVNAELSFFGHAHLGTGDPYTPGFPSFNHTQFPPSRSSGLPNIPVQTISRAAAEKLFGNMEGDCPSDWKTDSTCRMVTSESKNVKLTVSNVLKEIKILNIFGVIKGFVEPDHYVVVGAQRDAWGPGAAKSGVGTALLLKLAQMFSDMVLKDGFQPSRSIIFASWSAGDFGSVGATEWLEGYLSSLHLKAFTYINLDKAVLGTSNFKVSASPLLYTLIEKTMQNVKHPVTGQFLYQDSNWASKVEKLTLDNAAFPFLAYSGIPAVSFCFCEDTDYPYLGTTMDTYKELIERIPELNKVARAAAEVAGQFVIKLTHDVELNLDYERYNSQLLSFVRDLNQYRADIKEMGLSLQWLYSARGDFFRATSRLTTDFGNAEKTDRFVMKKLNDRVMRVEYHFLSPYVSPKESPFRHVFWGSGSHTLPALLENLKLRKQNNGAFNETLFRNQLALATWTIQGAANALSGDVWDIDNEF
Experiment: cell-based or functional assay

| CTG EC50 (CellTiter-Glo luminescent assay, SKBR3 cells, 72 h) [nM] | Binder |
| --- | --- |
| 0.07 | B16 |
| 0.57 | B17 |
| 0.21 | B18 |
| 0.11 | B19 |
| 0.04 | B20 |
| 0.15 | B21 |
| 0.05 | B22 |
| 0.04 | B23 |
| 0.57 | B24 |
| 0.07 | B25 |
| 0.16 | B26 |
| 0.01 | B27 |
| 0.06 | B28 |

Target: T3, human CD71 on cells (SKBR3; …)
Experiment: cell-based or functional assay
Remark: another data set of the same source

| LSA EC50 (luciferase reporter assay, SW620-rLuc-KRAS cells, 72 h) [nM] | Binder |
| --- | --- |
| 0.53 | B29 |
| 0.67 | B30 |
| 0.64 | B31 |
| 0.47 | B32 |

Target: T4, cynomolgus monkey CD71 extracellular domain (CD71-ECD) (cynomolgus monkey, UniProt H9EXL1 89-760 (rhesus entry))
T4 construct: extracellular domain; It was captured on a Neutravidin plate; also called cynomolgus CD71-ECD
T4 sequence (chain, as listed by the source): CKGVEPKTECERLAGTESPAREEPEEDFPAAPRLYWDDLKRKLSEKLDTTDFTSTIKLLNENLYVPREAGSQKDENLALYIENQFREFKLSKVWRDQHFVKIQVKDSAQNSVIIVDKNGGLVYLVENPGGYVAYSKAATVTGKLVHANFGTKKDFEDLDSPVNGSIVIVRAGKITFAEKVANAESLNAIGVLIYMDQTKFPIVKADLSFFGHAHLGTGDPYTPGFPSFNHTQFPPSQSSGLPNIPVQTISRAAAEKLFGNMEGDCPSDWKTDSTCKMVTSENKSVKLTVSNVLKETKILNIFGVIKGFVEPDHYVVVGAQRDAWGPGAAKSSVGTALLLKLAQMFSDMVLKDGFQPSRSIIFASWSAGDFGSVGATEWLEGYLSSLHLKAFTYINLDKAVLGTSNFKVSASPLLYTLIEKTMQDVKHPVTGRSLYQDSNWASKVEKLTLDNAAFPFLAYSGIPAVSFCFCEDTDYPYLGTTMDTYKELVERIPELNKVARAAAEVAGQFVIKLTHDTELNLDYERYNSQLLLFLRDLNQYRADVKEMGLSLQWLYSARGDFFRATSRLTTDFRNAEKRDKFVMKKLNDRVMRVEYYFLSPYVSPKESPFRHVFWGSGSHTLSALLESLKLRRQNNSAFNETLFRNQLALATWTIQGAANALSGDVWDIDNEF
Experiment: capture ELISA, 20 nM antigen on Neutravidin plate, FN3 titrated 250 to 0.3 nM
Experimental: (§1) Select CD71-binding FN3 domains identified in Example 4 above were chosen to determine their binding to both human and cynomolgus monkey CD71 extracellular domain (CD71-ECD). Capture ELISA using CD71 binding to FN3 domains was performed, with the FN3 domains being titrated from 250 nM to 0.3 nM. 20 nM of antigen was incubated on a Neutravidin® plate for 1 hour at room temperature. The FN3 domains were incubated for 16 hours at room temperature.

| EC50 [nM] | Binder |
| --- | --- |
| 0.7 | B33 |
| 4.3 | B34 |
| 1.6 | B35 |

Target: T5, human CD71 extracellular domain (CD71-ECD) (human, UniProt P02786 89-760)
T5 construct: It was captured on a Neutravidin plate; also called hCD71; transferrin receptor 1 ECD
T5 sequence (P02786 89-760): as the sequence (P02786 89-760) above
Experiment: as above
Experimental: as §1

| EC50 [nM] | Binder |
| --- | --- |
| 10 | B36 |
| 0.4 | B33 |
| 2.8 | B34 |
| 0.91 | B35 |

Target: T3, human CD71 on cells (SKBR3; …)
Experiment: cell-based or functional assay
Remark: another data set of the same source

| CTG EC50 (CellTiter-Glo luminescent assay, SKBR3 cells, 72 h) [nM] | Binder |
| --- | --- |
| 14.4 | B36 |
| 0.3 | B33 |
| 2.9 | B34 |
| 0.4 | B35 |

Target: T1, human CD71 extracellular domain
Experiment: primary ELISA, luminescence

| RLU [RLU] | Binder |
| --- | --- |
| 3.42e+06 | B1 |
| 2.43e+06 | B2 |
| 2.69e+06 | B3 |
| 2.54e+06 | B4 |
| 2.25e+06 | B5 |
| 2.66e+06 | B6 |
| 2.43e+06 | B7 |
| 3.1e+06 | B8 |
| 3.58e+06 | B9 |
| 3.1e+06 | B10 |
| 2.62e+06 | B11 |
| 5.78e+06 | B12 |
| 4.93e+06 | B13 |
| 5.75e+06 | B14 |
| 3.01e+06 | B15 |

Target: T2, apical domain of cynomolgus CD71
Experiment: primary ELISA, luminescence

| RLU [RLU] | Binder |
| --- | --- |
| 4.52e+06 | B1 |
| 4.22e+06 | B2 |
| 4.78e+06 | B3 |
| 4.73e+06 | B4 |
| 4.11e+06 | B5 |
| 4.86e+06 | B6 |
| 4.69e+06 | B7 |
| 4.79e+06 | B8 |
| 5.41e+06 | B9 |
| 4.33e+06 | B10 |
| 4.23e+06 | B11 |
| 6.01e+06 | B12 |
| 5.52e+06 | B13 |
| 6.08e+06 | B14 |
| 4.58e+06 | B15 |
